The pEC50 is the EC50 on a negative log10 scale, so that one unit is a factor of ten. Lower therefore signals a large EC50.

pEC50: −log10 of the molar value.

This assay deals with gH/gL expressed on the surface of CHO-K1 cells (UniProt P89445). In words: ELISA.
Chain of gH/gL expressed on the surface of CHO-K1 cells (P89445 19-838, chain 1 of 2): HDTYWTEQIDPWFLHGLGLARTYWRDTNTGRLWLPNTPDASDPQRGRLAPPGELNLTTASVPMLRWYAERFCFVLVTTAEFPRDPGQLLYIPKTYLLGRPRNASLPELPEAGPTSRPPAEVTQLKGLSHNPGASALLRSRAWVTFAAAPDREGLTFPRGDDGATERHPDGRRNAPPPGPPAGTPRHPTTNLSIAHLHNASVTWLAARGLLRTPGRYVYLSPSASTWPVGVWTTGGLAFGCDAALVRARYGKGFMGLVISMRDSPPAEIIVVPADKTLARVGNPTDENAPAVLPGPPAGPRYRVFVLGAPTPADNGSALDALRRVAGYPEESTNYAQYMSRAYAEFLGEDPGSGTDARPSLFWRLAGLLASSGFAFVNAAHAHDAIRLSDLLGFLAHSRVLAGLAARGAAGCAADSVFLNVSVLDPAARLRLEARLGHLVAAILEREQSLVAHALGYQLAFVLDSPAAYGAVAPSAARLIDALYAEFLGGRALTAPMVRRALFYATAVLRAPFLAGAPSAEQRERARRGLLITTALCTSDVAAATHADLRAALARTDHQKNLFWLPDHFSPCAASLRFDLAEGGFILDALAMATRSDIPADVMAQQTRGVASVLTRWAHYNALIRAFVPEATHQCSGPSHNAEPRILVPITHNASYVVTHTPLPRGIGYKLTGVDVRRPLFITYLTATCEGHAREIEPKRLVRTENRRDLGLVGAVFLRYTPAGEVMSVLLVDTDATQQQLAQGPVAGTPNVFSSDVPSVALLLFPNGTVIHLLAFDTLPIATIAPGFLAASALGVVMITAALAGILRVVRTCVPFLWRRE
Chain of gH/gL expressed on the surface of CHO-K1 cells (P28278 17-224, chain 2 of 2, further chain): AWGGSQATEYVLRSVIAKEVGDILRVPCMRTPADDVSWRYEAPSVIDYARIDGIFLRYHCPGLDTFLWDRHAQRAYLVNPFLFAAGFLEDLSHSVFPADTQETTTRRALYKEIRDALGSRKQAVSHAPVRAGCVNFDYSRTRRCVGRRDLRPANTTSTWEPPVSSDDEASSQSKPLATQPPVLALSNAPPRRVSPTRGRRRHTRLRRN

With “HSV-2 gD (aa1-275) with C-terminal His tag (domain or fragment)”, the pEC50 is 5.89.

For the origin of these results see publication PMC12055985.
